In patent US20020164762 one finds Km values and Vmax values (M^-1 s^-1) data, which are given here for two proteins.

In series [1] the target is T1, Acetyl-Asp-Glu-Val-Asp-pNA.
T1 chain: DEVD

In series [2] the target is T2, Acetyl-Tyr-Val-Ala-Asp-pNA.
T2 chain: YVAD

B1: D381E N-His ICE (D381E-modified human interleukin-1β converting enzyme, p20/p10, with N-terminal polyhistidine tag) (protein)
chain 1: HHHHHHNPAMPTSSGSEGNVKLCSLEEAQRIWKQKSAEIYPIMDKSSRTRLALIICNEEFDSIPRRTGAEVDITGMTMLLQNLGYSVDVKKNLTASDMTTELEAFAHRPEHKTSDSTFLVFMSHGIREGICGKKHSEQVPDILQLNAIFNMLNTKNCPSLKDKPKVIIIQACRGDSPGVVWFKD
chain 2: AIKKAHIEKDFIAFCSSTPDNVSWRHPTMGSVFIGRLIEHMQEYACSCDVEEIFRKVRFSFEQPEGRAQMPTTERVTLTRCFYLFPGH
For B1, in series [1], the Km values came to 44 µM and the Vmax values (M^-1 s^-1) amounted to 0.08. Further, in series [2], the Km values stood at 43 µM and the Vmax values (M^-1 s^-1) worked out at 0.19.

B2: WT N-His ICE (wild-type human interleukin-1β converting enzyme, p20/p10, with N-terminal polyhistidine tag) (protein)
chain 1: HHHHHHNPAMPTSSGSEGNVKLCSLEEAQRIWKQKSAEIYPIMDKSSRTRLALIICNEEFDSIPRRTGAEVDITGMTMLLQNLGYSVDVKKNLTASDMTTELEAFAHRPEHKTSDSTFLVFMSHGIREGICGKKHSEQVPDILQLNAIFNMLNTKNCPSLKDKPKVIIIQACRGDSPGVVWFKD
chain 2: AIKKAHIEKDFIAFCSSTPDNVSWRHPTMGSVFIGRLIEHMQEYACSCDVEEIFRKVRFSFEQPDGRAQMPTTERVTLTRCFYLFPGH
For B2, in series [1], the Km values was 25 µM and the Vmax values (M^-1 s^-1) is 0.02. In series [2], the Km values worked out at 26 µM and the Vmax values (M^-1 s^-1) came out at 0.04.
